# Source: paper PMC5823874, “The structure of iPLA2β reveals dimeric active sites and suggests mechanisms of regulation and localization” (Nature Communications, 2018)
# No end group written: not given here.
# Biological target: Calmodulin (CaM), unmodified (UniProt P0DP23 1-149)
# Experiment: fluorescence polarisation; synthetic FAM-labeled peptides of iPLA2β with CaM (Supplementary Figure 7h)
# Conditions: both partners purified
row,Binder,Kd
1,AWSEMVGIQYFR (also: FAM label (position not given here)) [Synthetic FAM-labeled peptide corresponding to the IQ motif of iPLA2β],5.9 ± 0.8 µM
2,RKGQGNKVKK (also: FAM label (position not given here)) [Synthetic FAM-labeled peptide corresponding to the 1-9-14 motif of iPLA2β],2.5 ± 0.4 µM
